For 137 substances, amyloid nucleation score results are on record in the supplement of paper PMC12042874.

Series [1] can be described thus: amyloid nucleation score (Sup35N fusion, yeast selection) (log enrichment); library NNK2; higher = more nucleation; inactive = no reads after selection. The method in brief: (§1)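 Peptides of 20 random codons fused to Sup35N were expressed in psi-negative yeast, induced 24 hours with 100 μM copper sulfate, then grown 7 days at 30°C on medium lacking adenine and uracil. Input and output plasmid inserts were Illumina-sequenced. Nucleation score is the DiMSum log enrichment of output over input reads, centred on the mode score of non-aggregating sequences, excluding sequences with under 100 input reads. Random libraries had three technical output replicates.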

Series [2] can be described thus: amyloid nucleation score (Sup35N fusion, yeast selection) (log enrichment); library NNK3; higher = more nucleation; inactive = no reads after selection. The method in brief: as §1

± gives the uncertainty stated by the source.

In turn, NGEASVGDFNVCLR returned an amyloid nucleation score in series [1] of -0.478 ± 0.64. The same measure, in the same setting: the value for QVKFLRDFEGFCMMMKHSSR was -0.395 ± 0.26. KSTGDCFLKMINYYCGWS came in with an amyloid nucleation score in series [1] of 6.066 ± 0.052. In the case of LARCGPKLW, the amyloid nucleation score in series [1] turned out to be 3.43 ± 0.07. The same measure, in the same setting: the value for AFYMIRH was 3.66 ± 0.076; that for GNRLWFGTIVRHLIYEVYVR was 0.665 ± 0.36. In series [1], WHWISAYCTFICRKVLKEMP gave an amyloid nucleation score of 0.478 ± 0.4.

With FYSELKLNGMH, the amyloid nucleation score in series [1] is -2.04 ± 0.62.

In the case of RCVYNTKVREMPVLVGLRQD, the amyloid nucleation score entry in series [1] is “inactive”. Take VRLGRWLFTFSANTDTLANM: the amyloid nucleation score in series [1] is -0.729 ± 1.1. Same read-out and setting: the value for PTGCLMICNSFVIDSVRRRP was 7.812 ± 0.032. WAGRCDHK showed an amyloid nucleation score in series [1] of 0.227 ± 0.25. Still for that read-out and setting: in the case of FCYIDGLGYSRFNMHAEPSG it was -0.326 ± 0.48. Same read-out and setting: in the case of PNSYAETDWISLCSDSMSWH it was 0.721 ± 0.74; in that of DTGSGAPVIKYCVAVPRSFT, 0.306 ± 0.57; in that of RPLSAEACPYVCTVSWDGLW, 1.02 ± 0.14. WLLFMS registered an amyloid nucleation score in series [1] of -0.353 ± 0.54. Still for that read-out and setting: the value for NASTRSGNYQFARHGLGYRR was 1.44 ± 0.17; that for GNRVYGDYCFYTTMGWASW was -0.379 ± 0.55. The same measure, in the same setting: the value for FECKVVILKCRLGYIFGANN was 1.26 ± 0.16. Same read-out and setting: in the case of MIHYRWTHYNTRIGGYRYWE it was 3.54 ± 0.05; in that of FDSEQLIRYD, -0.909 ± 1.1; in that of VSKSFFIVIV, 5.702 ± 0.047. For FYFCF, in series [1], the amyloid nucleation score came to 7.59 ± 0.03. Same read-out and setting: in the case of CMCENTYNRRIKVRYEWLKW it was -0.619 ± 0.21; in that of NSITSRYNGTDGPESVSQ, -0.299 ± 0.79; in that of KLNNVRLGGERFDLRTLGLR, -0.104 ± 0.42. The same measure, in the same setting: the value for KVKGLILDHDYRFRI was “inactive”; that for FNIERCLLISGMLCSPAVEL was -0.602 ± 1.1. On the same count and under the same terms, the value for DRMQVRSR was 0.944 ± 0.27. Consider KRSMKESWVYNLCNRVYCKG, for which, in series [1], the amyloid nucleation score was determined as 0.467 ± 0.8. On the same count and under the same terms, the value for TRGNM was 0.63 ± 0.39. On the same count and under the same terms, the value for KFMCSELSNFCINCILRLVV was -0.19 ± 1.1; that for TLLIMCGSISHSFPSECHWL was 0.716 ± 0.15; that for DLRRGSRRWRKYGTGECGLL was 0.43 ± 0.32.

In the case of NNCNSSSSFIIPVAFTSVIN, the amyloid nucleation score in series [1] is -1.67 ± 0.61. Same read-out and setting: the value for NITSSNRGVSFEETGVNAGI was “inactive”; that for IVFFTECSYSLFRWIMNNVW was -1.4 ± 0.39.

RSSSVVEARGESST registered an amyloid nucleation score in series [1] of 7.106 ± 0.041. Still for that read-out and setting: in the case of RDIRWIYEDTLISSGIWRSL it was 2.62 ± 0.11; in that of VQGTL, -0.718 ± 0.39. In series [1], GVVWKYRIFPWTFPHNFFHL came in with an amyloid nucleation score of -0.665 ± 0.39. For the substance KVALL, the amyloid nucleation score in series [1] was -0.257 ± 0.76. Still for that read-out and setting: in the case of LHCRSCGF it was -0.193 ± 0.43; in that of RMDVISEKFVWANESNCGVA, 0.362 ± 0.25.

In the case of DVIYNERTYLLFLTPHTMVV, the amyloid nucleation score in series [1] is -0.991 ± 0.63.

LYHPACSAFSRSFCVKFLYW: in series [1], the amyloid nucleation score was -0.837 ± 0.61. As to YRYLLVLSWRSMFAHRLLPS, in series [1], the amyloid nucleation score came to 1.5 ± 0.5. Still for that read-out and setting: in the case of ECLKYRYSFFNWTSTSVFHA it was -0.435 ± 0.79; in that of MRLLILDPYAREQ, “inactive”. DDSMHWFYLLGWIPVGSKGG: the amyloid nucleation score result in series [1] was “inactive”.

In series [1], TRVGGWKTSG gave an amyloid nucleation score of 0.945 ± 0.32. Still for that read-out and setting: the value for PCCQEACDGCEGNRDLPGEA was 1.65 ± 0.32. Still for that read-out and setting: in the case of VINVKEYVGYIVSKVDKGGP it was 4.24 ± 0.049.

In the case of QEVFSN, in series [1], the amyloid nucleation score is -0.849 ± 1.1. For the substance LCWFAMLEYVWDGHAVGDSI, in series [1], the amyloid nucleation score worked out at 4.06 ± 0.061.

CRITNSNSL had an amyloid nucleation score in series [1] of -0.448 ± 0.28. Still for that read-out and setting: the value for FLNDI was “inactive”; that for TVMLCSMISYKAVLVTYVGG was 1.87 ± 0.13; that for NAWDVTKSYQHVHSCSIMLV was “inactive”. Still for that read-out and setting: the value for YDYFTLSTTGLWLAIYMWWC was 0.287 ± 0.56; that for TLNMNVSFPIRRAHIYEMLI was 0.83 ± 0.48; that for RVRSSLVDLASVGSILLTAR was -0.264 ± 0.41. The substance YYTQRAAFIWKVICKVDVYV returned an amyloid nucleation score in series [1] of 2.46 ± 0.18.

As for LSHLLDGGISLKEGYILWMM, the amyloid nucleation score in series [1] is -0.252 ± 0.55.

Regarding ANCATSVLCCSGCV, the amyloid nucleation score in series [1] was 0.878 ± 0.14. In the case of DRAYDVCGRSRRWYQKKLGM, in series [1], the amyloid nucleation score was -0.667 ± 0.49. With TSKWQRNLFGDGSLKEFTGE, the amyloid nucleation score in series [1] is -0.712 ± 1.1. The same measure, in the same setting: in the case of TCATTDGVR it was 1.04 ± 0.21; in that of SQIRFWSRPRDCFGFLMRYV, -0.852 ± 1. The same measure, in the same setting: in the case of DNCLASVFINVKEFSHLCLW it was -0.451 ± 0.79; in that of KNDGEVMKSVFKDRHCCART, -0.565 ± 0.48; in that of YYSYYWQTNHID, -1.68 ± 0.62. On the same count and under the same terms, the value for FIIIVLNNSVFRMKCALASI was -0.202 ± 1.1; that for FYLSLLYGRSRQIGLLIYFQ was 0.974 ± 0.15. Turning to TFRAMAFVIFAGWLIRYDRR, in series [1], the amyloid nucleation score result is “inactive”. Same read-out and setting: the value for DTPCSYISCMCNTIL was 9.453 ± 0.03.

Substance CIYHGANRIYLSDVA showed an amyloid nucleation score in series [1] of 0.381 ± 0.6. In series [1], YRSSSWVNWIQWH returned an amyloid nucleation score of 3.47 ± 0.095.

In series [1], CSYWNVGYREVRMTDDDTMG showed an amyloid nucleation score of -0.975 ± 0.53.

For RCIDSVLIMHITYFAAFGKL, in series [1], the amyloid nucleation score stood at 5.08 ± 0.099. On the same count and under the same terms, in the case of RLSYWFIKELGNTSDYDRAP it was -0.541 ± 0.76. For the substance NVLGSRLKLMNEGIDLALIK, the amyloid nucleation score in series [1] worked out at 6.38 ± 0.069. The same measure, in the same setting: in the case of NYTNVRERGYMRVEYDMSIT it was 0.202 ± 0.56; in that of AVFTIFALVRS, 1.08 ± 0.51. LYFWPLTFRSGHCCGLSQVK: the amyloid nucleation score in series [1] was determined as 1.16 ± 0.61. The same measure, in the same setting: in the case of RRLKLRINMVFLEYGFKSKF it was 3.8 ± 0.046.

In the case of KYFVTNRVVWTDRVSIFGV, the amyloid nucleation score in series [1] came out at 1.07 ± 0.53. Consider VHVVSRAQTCEFF, for which the amyloid nucleation score in series [1] was 0.956 ± 0.67. The same measure, in the same setting: in the case of YLKPLAFITSILHAMTRPWH it was -1.28 ± 0.75; in that of ETVLFYSV, “inactive”; in that of RVLKLCRLCHFKYLTSEAGV, -0.309 ± 0.34. Same read-out and setting: the value for GMIVLRCSRSCWFVQTKADG was 1.27 ± 0.48; that for SYVGICGAMNLCSETVSCMV was -0.977 ± 0.41; that for SVIHREIELVFILI was 4.4 ± 0.087. In series [1], VSLRSDSGLGITVLMPPSRS showed an amyloid nucleation score of 1.6 ± 0.44. Same read-out and setting: the value for CGRWVSGAWDGCGCGLGVLG was -0.305 ± 0.55.

For the substance LRVTGNVGLSFGAKGLARPD, the amyloid nucleation score in series [1] came to 3.33 ± 0.12.

For the substance FHLIALNCRWADDLFIGSGV, in series [1], the amyloid nucleation score came to 0.374 ± 0.62. On to SRFLFCVPHVDCWLLTWNLS, for which the amyloid nucleation score in series [1] stood at 6.68 ± 0.073. On the same count and under the same terms, in the case of WIFSPGLMDFVEHDNLEWIA it was 0.67 ± 0.44; in that of SRFYILRL, 2.25 ± 0.098. Same read-out and setting: in the case of IHDALTRCEWGSVSPRSSGC it was 0.682 ± 0.28. In turn, KTYGGLLSLPVVLRMLEPRA gave an amyloid nucleation score in series [1] of 0.319 ± 0.61. Still for that read-out and setting: the value for ILADINL was “inactive”; that for YGASRNWQKNSLVASEYQVG was “inactive”; that for SRIEHMACLRRP was 0.496 ± 0.66. The same measure, in the same setting: in the case of LDVAGKVKASHKLRAWVWFS it was 0.436 ± 0.8; in that of MTFNVFRNQALRPNCCKPNG, 3.09 ± 0.18. Still for that read-out and setting: in the case of TGLWDVCQVLIRFRNVFWRN it was 3.06 ± 0.079; in that of LTRKKKMQFF, “inactive”; in that of GICTWNFV, “inactive”. In turn, MIMHNVANDWTVFYFLCRVV came in with an amyloid nucleation score in series [1] of -0.723 ± 0.55. In turn, CRSFAVTDLRVYVKF registered an amyloid nucleation score in series [1] of 2.12 ± 0.12. Still for that read-out and setting: the value for DSSGVGTRLDCKLCFENLID was -0.952 ± 0.47; that for ETMNA was 1.38 ± 0.16.

With HWKVENRLNSMEWKSMGGQN, the amyloid nucleation score in series [1] stood at 3.97 ± 0.053. On the same count and under the same terms, in the case of RIKGSGGPNVLGWFRMVLCS it was 0.284 ± 1.1; in that of TVYSHEKGVQLWFLLIVALL, 0.27 ± 0.48. On the same count and under the same terms, the value for ITTAYGGTIEMIRELNVASV was 0.42 ± 0.47. Still for that read-out and setting: in the case of RTDRSYRGLKPVVLVTQWGG it was -0.106 ± 0.63; in that of RRIVGFFANDRTLIYLVGYI, -0.902 ± 0.49; in that of PILLMSTVTRRLVRCNVAFK, 0.391 ± 0.51. In turn, RWTWNSEVRNLRIFASYPGC showed an amyloid nucleation score in series [1] of -0.418 ± 1.1.

Regarding VCHAGTWLQSGRTRYSIVRN, in series [1], the amyloid nucleation score was 3.51 ± 0.12.

DYTGT yielded an amyloid nucleation score in series [2] of -0.191 ± 0.74. On to VQTWWLNMCLLPRKSTYTHL, for which, in series [2], the amyloid nucleation score entry is “inactive”.

With RDDGEALVTSARRVQTSYPA, in series [2], the amyloid nucleation score was -0.145 ± 0.93. In series [2], SVSVLHSYYLIYVCRDFFMK came in with an amyloid nucleation score of 0.865 ± 0.12. The same measure, in the same setting: the value for YKEMVHRSG was “inactive”; that for RYVTCNLEINTWDRVRGWHV was 1.16 ± 0.16; that for EYRLVKFHSPLFQRIKSIVA was “inactive”. For MCLSMVKISKNKLSFTGFLI, the amyloid nucleation score entry in series [2] is “inactive”. Still for that read-out and setting: the value for RNSVIWNRLYRMRWV was “inactive”. The same measure, in the same setting: in the case of DMGTTCPSCSKRLAGQGKAA it was “inactive”; in that of FLETV, “inactive”; in that of SVYGKFILAAVAGLRFGGLK, “inactive”.
